This is an account of results in US20160060340A1 (Kyowa Kirin, published 2016).

Assay [1] deals with T1, FOLR1-mycHis (human, UniProt P15328 25-233).
T1 construct: Secreted from CHO/DG44 cells, purified on Ni-NTA; Residues 1-233 include the native signal peptide; also called non-reducing FOLR1-mycHis; recombinant protein having myc and His tag at the C-terminus of FOLR1 (1-233 amino acids); not shown: myc and His tag at the C-terminus
Kind of assay: SPR (Biacore), antibody captured by Human Antibody Capture Kit on a CM5 chip, FOLR1-mycHis as analyte (12.3-1000 ng/mL, as in Example 29); affinity relative to ChRA15-7Acc = 100. The protocol: (§1) The affinities of ChRA15-7Acc antibody and MORAb-003 antibody for FOLR1 were measured by a surface plasmon resonance method. The measurement was carried out in the same manner as in Example 16, except that a Human Antibody Capture Kit (GE Healthcare) was immobilized onto the CM5 chip by amine coupling and FOLR1-mycHis prepared by five-step dilution (12.3, 37, 111, 333, 1000 ng/mL) was applied as an analyte.
(§2) Affinities of HV7LV3-CDRH3-Cys101 modified antibodies for FOLR1 were measured by the surface plasmon resonance method in the same manner as in Example 29.
For orientation: SPR reads the build-up and loss of mass on a sensor chip optically.

Assay [2] has as its target T2, cynomolgus monkey FOLR1-Fc (cynomolgus monkey; human).
T2 construct: Expressed in CHO/Ms704 cells; also called CyFOLR1-Fc; not shown: Human IgG1 Fc (Hinge region and CH2-CH3 region) from pKANTEX93, added to the C-terminus
Kind of assay: ELISA, antigen coated at 2 ug/mL, antibody 1.4-1000 ng/mL, goat anti-human kappa-HRP, ABTS, absorbance at 415 nm [d]. The protocol: (§3) First, each 50 μL/well of FOLR1-Fc, FOLR2-Fc, FOLR3-Fc, and cynomolgus monkey FOLR1-Fc which were prepared at a concentration of 2 μg/mL using PBS was added in a 96-well plate for ELISA and incubated at 4° C. overnight. It was washed with PBS, and then 200 μL/well of 1% BSA/PBS wad added at room temperature for 1 hour for blocking. It was washed with PBS again, and each 50 μL/well of HuRA15-7CTDF antibody, ChRA15-7DF antibody, MORAb-003DF antibody, and defucosylated anti-DNP human IgG1 (DNPDF) antibody as a negative control which were prepared by seven-step dilution (1.4, 4.1, 12, 37, 111, 333, 1000 ng/mL) in 1% BSA/PBS was added, and allowed to react at room temperature for 1 hour.
(§4) Each well was washed with 0.05% tween20/PBS, and then 50 μL/well of Goat anti-Human kappa-HRP (Southern Biotech) which was diluted 2000-fold using 1% BSA/PBS was added and allowed to react at room temperature for 1 hour. Each well was washed with PBS, and then 50 μL/well of ABTS substrate solution was added, and allowed to react at room temperature. After sufficient color development was confirmed, 5% SDS solution was added to terminate the reaction, and absorbance at 415 nm was measured.
(In an ELISA, binding on a coated surface is turned into a signal by an enzyme label.)

Assay [3] has as its target T1, FOLR1-mycHis. Kind of assay: surface plasmon resonance as in Example 29. The protocol:
as §1, §2

Assay [4] concerns the target T1, FOLR1-mycHis. Kind of assay: SPR as in Example 29, antibody captured, FOLR1-mycHis as analyte. The procedure:
as §1, §2

Assay [5] deals with T1, FOLR1-mycHis. Kind of assay: SPR (Biacore T100), antibody captured with Human Antibody Capture Kit, FOLR1-mycHis as analyte, 1:1 binding model. The protocol: (§5) The affinity was analyzed from association constant (Ka) and dissociation constant (Kd) by Single-cycle kinetics. Kinetic constants (ka, kd, KD) were calculated by 1:1 binding model using a Biacore T-100 Evaluation software (GE Healthcare).
as §1

For assay [6], the target named is T2, cynomolgus monkey FOLR1-Fc. Kind of assay: ELISA, antigen coated at 2 ug/mL, antibody 1.4-1000 ng/mL, goat anti-human kappa-HRP, ABTS, absorbance at 415 nm [c]. The protocol: as §3, §4
The target in assay [7] is T2, cynomolgus monkey FOLR1-Fc. Kind of assay: ELISA: antibody captured by anti-rat IgG, Fc fusion added, anti-human IgG-POD. The procedure:
Each well was washed with PBS, and then 100 μL/well of 1% BSA/PBS was added at room temperature for 1 hour for blocking. Each well was washed with PBS again, and 50 μL/well of the RA15-7 culture supernatant was added, and allowed to react at room temperature for 1 hour. Each well was washed with 0.05% tween20/PBS, and 50 μL/well of FOLR1-Fc, FOLR2-Fc, FOLR3-Fc, and cynomolgus monkey FOLR1-Fc which were diluted in 1% BSA/PBS were added, and allowed to react at room temperature for 1 hour.
Each well was washed with 0.05% tween20/PBS, and then 50 μL/well of Goat anti-human IgG(H+L)-POD (American Qualex) which was diluted 2000-fold in 1% BSA/PBS was added and allowed to react at room temperature for 1 hour. Each well was washed with PBS, and then 50 μL/well of ABTS substrate solution was added, and allowed to react at room temperature. After sufficient color development was confirmed, 50 μL/well of 5% SDS solution was added to terminate the reaction, and absorbance at 415 nm was measured.

The target in assay [8] is T3, cynomolgus monkey FOLR1 (on JTC-12 cells) (cynomolgus monkey, UniProt P15328 25-234 (human entry)).
T3 construct: Endogenous FOLR1 of the cynomolgus monkey kidney-derived cell line JTC-12; also called CyFOLR1
Kind of assay: flow cytometry on cynomolgus monkey kidney-derived cell line JTC-12. The procedure:
Subsequently, the cells were seeded in a 96-well plate at a density of 2×10⁵ cells/well, followed by centrifugation at 1500 rpm for 1 minute. After the supernatant was discarded, 50 μL of RA15-7 culture supernatant was added to each well, and allowed to react at 4° C. for 30 minutes.
Cells were washed, and then Alexa488-labeled anti-rat IgG(H+L) polyclonal antibody (Invitrogen) diluted in 1% BSA/PBS was added thereto, and they were allowed to react at 4° C. for 30 minutes. The cells were washed again, and then suspended in 1% BSA/PBS, and fluorescent intensity was analyzed by flow cytometry.
In the same manner, the reactivity of the RA15-7 culture supernatant to cynomolgus monkey kidney-derived cell line JTC-12 (RCB1485, RIKEN CELL BANK) was also analyzed by flow cytometry.
For orientation: In flow cytometry, cells or beads pass a laser one at a time.

Assay [9] concerns the target T1, FOLR1-mycHis. Kind of assay: SPR (Biacore T100), antibody of the supernatant captured on CM5 chip, FOLR1-mycHis as analyte, single-cycle kinetics, 1:1 binding model.
From the text: After cloning, the hybridoma culture supernatant was used to measure its affinity for FOLR1 by a surface plasmon resonance method. As instruments for measurement, Biacore T100 (GE Healthcare), and CM5 chip (GE Healthcare) were used. First, Mouse Antibody Capture Kit (GE Healthcare) was immobilized onto the CM5 chip by amine coupling.
Subsequently, the hybridoma culture supernatant was applied using HBS-EP+buffer (GE Healthcare), and the antibodies contained in the supernatant were captured on the CM5 chip. Subsequently, FOLR1-mycHis prepared by five-step dilution (188, 375, 750, 1500, 3000 ng/mL) was applied as an analyte.
as §5

Residue numbers refer to the chain shown, from its start. Numbers in names are those of the source.

T2 sequence (chain, as listed by the source): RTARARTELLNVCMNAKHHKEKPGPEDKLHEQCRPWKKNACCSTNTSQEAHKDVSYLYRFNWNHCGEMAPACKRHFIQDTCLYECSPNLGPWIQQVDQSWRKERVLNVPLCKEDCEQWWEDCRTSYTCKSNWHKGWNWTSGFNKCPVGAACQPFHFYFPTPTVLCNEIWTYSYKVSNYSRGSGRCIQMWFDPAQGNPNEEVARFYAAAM
T1 sequence (P15328 25-233): as the sequence (chain, as listed by the source) above, with T2I, R4W, K37R, P146A, Y171H counted along it
T3 sequence (P15328 other isoform, or with tags, fused parts or gaps limits assumed): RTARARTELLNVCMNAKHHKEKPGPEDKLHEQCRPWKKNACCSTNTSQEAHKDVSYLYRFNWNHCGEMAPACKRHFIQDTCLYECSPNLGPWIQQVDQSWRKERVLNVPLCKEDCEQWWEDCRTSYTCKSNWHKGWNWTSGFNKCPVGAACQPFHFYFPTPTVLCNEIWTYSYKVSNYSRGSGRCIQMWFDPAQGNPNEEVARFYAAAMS

B1: C101A (antibody, V domains shown)
VH: EVQLVESGGGLVQPGGSLRLSCAASGFTFTDFYMNWVRQPPGKAPEWLGFIRNKANGYTTEFNPSVKGRFTISRDNSKNSLYLQMNSLKTEDTATYYCARALYGYAYYYVMDAWGQGTLVTVSS
VL: DIQMTQSPSSLSASLGDRVTITCRTSEDIFRNLAWYQQKPGKAPKLLIYDTNRLADGVPSRFSGSGSGTDYTLTISSLQPEDFATYFCQQYDNYPLTFGQGTKLEIK
notes: also called HV7LV3-CDRH3-Cys101 modified antibody C101A; antibody in which Cys101 was modified with Ala
Consider B1, for which the binding result with FOLR1-mycHis [1] was “binds”.

B2: HuRA15-7CTDF antibody (antibody, human IgG1, V domains shown)
VH: B1 VH with A101T
VL: B1 VL
notes: defucosylated, made in CHO/Ms704 cells; also called defucosylated HuRA15-7CT
Regarding B2, the binding result in assay [2] is given as “binds”.

B3: HV7LV3-CDRH3-Cys101 modified antibody C101T (HuRA15-7CT) (antibody, human IgG1, V domains shown)
VH: B1 VH with A101T
VL: B1 VL
modifications: Expressed in FUT8-knockout CHO-K1 cells (Fc glycan without core fucose); not carried by the letters.
notes: Human IgG1 kappa constant regions of pKANTEX93; transiently made in FUT8 double-knockout CHO-K1 cells; Same vector as HuRA15-7CTDF; also called antibody in which Cys101 was modified with Thr
Take B3: the results for the “affinity as percent of the affinity of ChRA15-7Acc antibody” value (“affinity as percent” for short) in the assay with FOLR1-mycHis [3] and in the assay with FOLR1-mycHis [4] were ≥ 50 % of the affinity of ChRA15-7Acc antibody and 88%, respectively.

B4: HV7LV3-CDRH3-Cys101 modified antibody C101V (antibody, human IgG1, V domains shown)
VH: B1 VH with A101V
VL: B1 VL
notes: Human IgG1 kappa constant regions of pKANTEX93; transiently made in FUT8 double-knockout CHO-K1 cells; also called antibody in which Cys101 was modified with Val
As for B4, the “affinity as percent” value with FOLR1-mycHis [3] was ≥ 50 % of the affinity of ChRA15-7Acc antibody; in the assay with FOLR1-mycHis [4], 55%.

B5: C101P (antibody, V domains shown)
VH: B1 VH with A101P
VL: B1 VL
notes: also called HV7LV3-CDRH3-Cys101 modified antibody C101P; antibody in which Cys101 was modified with Pro
For B5, in the assay with FOLR1-mycHis [1], the binding result is “no binding”.

B6: C101G (antibody, V domains shown)
VH: B1 VH with A101G
VL: B1 VL
notes: also called HV7LV3-CDRH3-Cys101 modified antibody C101G; antibody in which Cys101 was modified with Gly
Consider B6, for which the binding result in the assay with FOLR1-mycHis [1] is on record as “binds”.

B7: HV7LV3-CDRH3-Cys101 modified antibody C101Q (antibody, human IgG1, V domains shown)
VH: B1 VH with A101Q
VL: B1 VL
notes: Human IgG1 kappa constant regions of pKANTEX93; transiently made in FUT8 double-knockout CHO-K1 cells; also called antibody in which Cys101 was modified with Gln
Take B7: the “affinity as percent” value was ≥ 50 % of the affinity of ChRA15-7Acc antibody with FOLR1-mycHis [3] and 64% with FOLR1-mycHis [4].

B8: MORAb-003 antibody (antibody, V domains shown)
VH: EVQLVESGGGVVQPGRSLRLSCSASGFTFSGYGLSWVRQAPGKGLEWVAMISSGGSYTYYADSVKGRFAISRDNAKNTLFLQMDSLRPEDTGVYFCARHGDDPAWFAYWGQGTPVTVSS
VL: DIQLTQSPSSLSASVGDRVTITCSVSSSISSNNLHWYQQKPGKAPKPWIYGTSNLASGVPSRFSGSGSGTDYTFTISSLQPEDIATYYCQQWSSYPYMYTFGQGTKVEIKR
A word on the Kd: it is the equilibrium constant for the complex coming apart. As usually defined, the koff is a measure of how fast the partners let go of each other. In the assay with FOLR1-mycHis [5], B8 returned an equilibrium dissociation constant (Kd) of 0.057 µM and a dissociation rate constant (koff) of 0.0259 s⁻¹.

B9: ChRA15-7DF antibody (antibody, human IgG1, V domains shown)
VH: EVKLLESGGGLVQPGGSMRLSCAASGFTFTDFYMNWIRQPAGKAPEWLGFIRNKANGYTTEFNPSVKGRFAISRDNTQNMLYLQMNTLRAEDTATYYCARCLYGYAYYYVMDAWGQGTSVTVSS
VL: DIQMTQSPASLSASLGETVTIECRTSEDIFRNLAWYQQRPGNSPQLLIYDTNRLADGVPSRFSGSGSGTQYSLKINSLQSEDVAGYFCQQYDNYPLTFGSGTKLEIK
notes: sugar chain without fucose, made in CHO/Ms704 cells; also called defucosylated rat/human chimeric RA15-7
Consider B9, for which the binding result in assay [6] was “binds”.

B10: RA15-7 antibody (antibody, V domains shown)
VH: B9 VH
VL: B9 VL
notes: also called antibody contained in the RA15-7 culture supernatant; culture supernatant of hybridoma RA15-7 clone
Consider B10, for which the binding result in [7] and in assay [8] was “binds” each time. This molecule also displayed a Kd with FOLR1-mycHis [9] of 0.0019 µM.
